Measured values taken from publication PMC11260479, “YY1 is involved in homologous recombination inhibition at guanine quadruplex sites in human cells”.

Target: RAD51 (UniProt Q06609 1-339)
Test: EMSA; 2 mM ATP, 5 mM CaCl2; EMSA, 10 nM DNA. RAD51: 20 mM Tris-HCl pH 8.0, 30 mM NaCl, 1 mM DTT, 2 mM ATP, 5 mM CaCl2, 0.2% Tween 20, 37 C 15 min. BG4: 20 mM Tris-HCl pH 8.0, 30 mM KCl, 1
Conditions: protein: commercial; chain copies: 10; label: none (SYBR Gold stain); single strand

Sequence of RAD51 (Q06609 whole entry): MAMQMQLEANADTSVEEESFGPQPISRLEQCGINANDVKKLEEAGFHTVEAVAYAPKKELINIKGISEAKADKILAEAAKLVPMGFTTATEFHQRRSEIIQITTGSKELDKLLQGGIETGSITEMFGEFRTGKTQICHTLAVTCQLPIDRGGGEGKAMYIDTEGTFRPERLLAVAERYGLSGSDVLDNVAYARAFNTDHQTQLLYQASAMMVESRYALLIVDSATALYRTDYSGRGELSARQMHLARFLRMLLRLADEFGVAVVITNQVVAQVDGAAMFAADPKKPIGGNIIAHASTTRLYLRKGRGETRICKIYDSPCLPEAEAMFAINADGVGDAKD

B1: ss-DNA (ssDNA)
DNA: ATGGTGTGTGTAGGTTAATGTGAGGAGGAGAGGTGAAGAAGGAGGAGAGAAGAAGGAGGC
- binding result: binds
